This note sets out measurements from US20240376193A1 (BIOSCEPTRE AUST, published 2024).

The target of test [1] is T1, E200 peptide.
T1 construct: Antigen derived from dysfunctional P2X7 receptor
T1 peptide: GHNYTTRNILPGLNITC
As to the kind of experiment: binding kinetics on E200 peptide; method not stated.

Test [2] deals with T1, E200 peptide. The experiment in a line: binding kinetics on E200 peptide; method not stated; column 'affinity (nM) (E200)'.

B1: BIL03 VH only (other)
VH: EVQLLESGGGLVQPGGSLRLSCAASGFTFRNHDMGWVRQAPGKGLEWVSAISGSGGSTYYANSVKGRFTISRDNSKNTLYLQMNSLRAEDTAVYYCAEPKPMDTEFDYRSPGTLVTVSS
notes: Human single-domain VH tested without a light chain; also called BIL03 heavy chain; single domain heavy chain protein BIL03
As for B1, the Kd in the test with E200 peptide [1] and with E200 peptide [2] was 127 nM in each case.

B2: BIL03-Germline B1 (other)
VH: EVQLLESGGGLVQPGGSLRLSCAASGFTFRNHDMGWVRQAPGKGLEWVSAISGSGGSTYYANSVKGRFTISRDNSKNTLYLQMNSLRAEDTAVYYCAEPKPMDTEFDYRSPGTLVTVSS
VL: DIQMTQSPSSLSASVGDRVTITCRASQSISSYLNWYQQKPGKAPKLLIYAASSLQSGVPSRFSGSGSGTDFTLTISSLQPEDFATYYCQQFDYMPLTFGQGTKVEIKR
notes: also called G B1; GB1
On to B2, for which the Kd (in general, the constant that tells how readily two partners part at equilibrium) with E200 peptide [1] came to 82.7 nM; with E200 peptide [2], 83 nM.

B3: BIL03-WT B1 (scFv format) (scFv, V domains shown)
VH: EVQLLESGGGLVQPGGSLRLSCAASGFTFRNHDMGWVRQAPGKGLEWVSAISGSGGSTYYANSVKGRFTISRDNSKNTLYLQMNSLRAEDTAVYYCAEPKPMDTEFDYRSPGTLVTVSS
VL: DIQMTQSPSSLSASVGDRVTITCRASQYIYDYLNWYQQKPGKAPKLLIYAASYLQSGVPSRFSGSGSGTDFTLTISSLQPEDFATYYCQQYHHPSTFGQGTKVEIKR
notes: Tested in scFv format, so VH and VL sit in one polypeptide
As for B3, the Kd with E200 peptide [1] was found to be 24.2 nM; in the test with E200 peptide [2], 24 nM.
